In this series the target is T1, PHF14 ePHD domain E430A K435A (Homo sapiens, UniProt O94880 382-499, E430A;K435A).
T1 sequence: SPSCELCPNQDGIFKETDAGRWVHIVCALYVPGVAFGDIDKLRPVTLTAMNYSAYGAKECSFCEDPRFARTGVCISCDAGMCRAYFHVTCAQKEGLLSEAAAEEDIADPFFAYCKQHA
Kind of series: SPR; protein immobilized on CM5; SPR: HBS-P (10 mM HEPES pH 7.4, 150 mM NaCl, 0.05% P20), 25 °C, 1:1 Langmuir fit; EMSA: LightShift kit protocol, 0.5x TBE native PAGE, buffer not stated. Conditions: protein: recombinant; tags: His (EMSA, purification method); FLAG (SPR); label: biotin (EMSA); blunt. (In general: In SPR one partner is held on a chip, and binding of the other changes the refractive index at the surface.)

B1: CG-rich probe, unmethylated (dsDNA)
DNA 1: ACGGCTCGTCGCTACGGCTCGTCGCT
DNA 2: AGCGACGAGCCGTAGCGACGAGCCGT
The Kd is the free concentration of one partner at which half of the binding sites on the other are occupied at equilibrium, for simple one-to-one binding. In the case of B1, the Kd stood at 275 nM.
